Data set [1] has as its target T1, CFIm25 delN21 (crystal);CFIm68 N13-235 (crystal) (human;human, UniProt O43809;Q16630 21-227;13-235, |). The data set can be described thus: X-ray crystallography.
For data set [2], the target named is T1, CFIm25 delN21 (crystal);CFIm68 N13-235 …. The data set can be described thus: X-ray crystallography. This is another data set of the same source.
The target in the next data set is CFIm25;CFIm68 RRM (human;human, UniProt O43809;Q16630 1-227;13-235, |). The data set can be described thus: EMSA.
The target of a further data set is CFIm25 (human, UniProt O43809 1-227). The data set can be described thus: EMSA.

Read-outs that look alike come from different tables or passages of the source.

T1 sequence (O43809 21-227, chain 1 of 2): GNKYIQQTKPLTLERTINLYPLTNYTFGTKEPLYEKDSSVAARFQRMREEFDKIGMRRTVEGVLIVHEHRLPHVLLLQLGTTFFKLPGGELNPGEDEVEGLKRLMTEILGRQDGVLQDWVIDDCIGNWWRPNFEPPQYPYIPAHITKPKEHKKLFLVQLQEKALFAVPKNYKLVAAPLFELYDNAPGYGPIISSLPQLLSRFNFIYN
T1 sequence (Q16630 13-235, chain 2 of 2): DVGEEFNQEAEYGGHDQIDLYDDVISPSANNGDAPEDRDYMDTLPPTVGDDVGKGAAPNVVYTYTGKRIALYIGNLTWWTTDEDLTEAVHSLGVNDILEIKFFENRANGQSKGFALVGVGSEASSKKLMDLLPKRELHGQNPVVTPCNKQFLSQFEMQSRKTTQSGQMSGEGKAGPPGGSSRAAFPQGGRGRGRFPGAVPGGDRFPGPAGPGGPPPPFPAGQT
Chain of CFIm25;CFIm68 RRM (O43809 whole entry, chain 1 of 2): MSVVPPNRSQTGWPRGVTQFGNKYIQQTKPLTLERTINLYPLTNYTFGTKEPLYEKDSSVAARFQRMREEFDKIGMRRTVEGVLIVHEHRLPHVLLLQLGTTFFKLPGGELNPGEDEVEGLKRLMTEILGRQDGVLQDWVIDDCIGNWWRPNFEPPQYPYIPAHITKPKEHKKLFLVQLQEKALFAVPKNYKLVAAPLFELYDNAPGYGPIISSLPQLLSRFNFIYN
Chain of CFIm25;CFIm68 RRM (Q16630 13-235, chain 2 of 2): as the sequence (Q16630 13-235, chain 2 of 2) above
Chain of CFIm25 (O43809 whole entry): as the sequence (O43809 whole entry, chain 1 of 2) above

As to UAUUUUGUA (ssRNA) [9-mer RNA], the binding result in data set [1] is listed as “binds”. Regarding UUGUAU (ssRNA) [6-mer RNA], in data set [2], the binding result is reported as “binds”. With GGGUGUAAAACAGAUGAUGUAU (ssRNA) [PAPOLA upstream element as printed], the Kd was 222 nM with CFIm25;CFIm68 RRM and 645 nM in the data set with CFIm25.

These data come from PMC3056899.
